The series can be described thus: protein stability index of a GFP-peptide fusion (yeast GPS) (PSI 1-4); higher = more stable; sorted into four equal gates, so the index is relative within each strain. In outline:
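Plasmids in a pooled yeast library fused tiled 17-residue yeast protein peptides downstream of GFP and also expressed Cherry. Mid-log cultures grown without leucine were sorted into four equal gates by GFP/Cherry fluorescence ratio. Each gate's plasmids were PCR-amplified and Illumina-sequenced, and reads were matched to strains by barcodes. The protein stability index is derived by multiplying each gate's read frequency by its gate number and summing the results.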

± gives the uncertainty stated by the source.

In turn, SELNEGNLSKREIQIDA [SRB8] showed a protein stability index (doa10∆) of 2.69 ± 0.062, a protein stability index (pdr5∆) of 2.88 ± 0.073, a protein stability index (san1∆) of 2.98 ± 0.069 and a protein stability index (ubr1∆) of 2.12 ± 0.063.
For the sequence SENRFPGWDFETEEIDP [RPL5], the protein stability index (doa10∆) is 2.77 ± 0.14, the protein stability index (pdr5∆) is 2.78 ± 0.076, the protein stability index (san1∆) amounted to 2.48 ± 0.078 and the protein stability index (ubr1∆) was determined as 2.5 ± 0.16.
On to SENVFEGLTYKYPARRI [SSN3], for which the protein stability index worked out at 3.18 ± 0.11 (doa10∆), 3 ± 0.17 (pdr5∆), 2.62 ± 0.17 (san1∆) and 2.86 ± 0.089 (ubr1∆).
SEPLTLKVLSEHLDCMN [PCI8] yielded a protein stability index (doa10∆) of 1.91 ± 0.064, a protein stability index (pdr5∆) of 2.29 ± 0.065, a protein stability index (san1∆) of 2.73 ± 0.055 and a protein stability index (ubr1∆) of 1.93 ± 0.058.
For SETDLNDIPLGSGQPDN [SRB8], in that order: 3.09 ± 0.11, 3.12 ± 0.069, 3.06 ± 0.07 and 2.87 ± 0.056.
The sequence SFAIYSSTIDAPAFHTS [SRB8] displayed a protein stability index (doa10∆) of 2.21 ± 0.055, a protein stability index (pdr5∆) of 2.21 ± 0.056, a protein stability index (san1∆) of 2.03 ± 0.065 and a protein stability index (ubr1∆) of 2.25 ± 0.045.
Turning to SFDSIDHSWFLLIGCKL [CSI1], the protein stability index reads like this: (doa10∆) 1.71 ± 0.1; (pdr5∆) 1.77 ± 0.058; (san1∆) 1.72 ± 0.2; (ubr1∆) 2.58 ± 0.05.
SFGTANTNGTNASANST [YOR098C/NUP1]: the protein stability index stood at 3.04 ± 0.11 (doa10∆), 3.02 ± 0.11 (pdr5∆), 2.75 ± 0.15 (san1∆) and 2.85 ± 0.12 (ubr1∆).
For the sequence SFHVQKKTCSSCGYPSA [RPL37B], the protein stability index turned out to be 1.86 ± 0.08 (doa10∆), 2.18 ± 0.076 (pdr5∆), 1.86 ± 0.12 (san1∆) and 2.19 ± 0.059 (ubr1∆).
As for SFIISSLDTLELESITE [NUT1], the protein stability index is, setting by setting: (doa10∆) 1.74 ± 0.075; (pdr5∆) 1.64 ± 0.042; (san1∆) 1.78 ± 0.083; (ubr1∆) 1.78 ± 0.04.
Taken in the same sequence, the figures for SFLKVDPDLGLDLMFDE [YJL039C/NUP192] were 3.3 ± 0.083, 3.3 ± 0.09, 3.04 ± 0.087 and 3.06 ± 0.091.
Consider SFSFLNRADGTGEAQVD [YLR335W/NUP2], for which the protein stability index reads like this: (pdr5∆) 3.39 ± 0.23; (ubr1∆) 2.78 ± 0.29.
Regarding SFSVCKIRCFRYISTLT [IRR1], the protein stability index (doa10∆) was 1.61 ± 0.057, the protein stability index (pdr5∆) came to 1.39 ± 0.055, the protein stability index (san1∆) amounted to 1.49 ± 0.11 and the protein stability index (ubr1∆) was found to be 1.31 ± 0.052.
Turning to SGCDSTKPSLRKASCIW [ECM29], the protein stability index (doa10∆) amounted to 2.86 ± 0.082, the protein stability index (pdr5∆) is 3.11 ± 0.075, the protein stability index (san1∆) was 2.63 ± 0.076 and the protein stability index (ubr1∆) came to 2.98 ± 0.066.
As for SGDNHTQQSHEQQPEQP [RPT4], the protein stability index (doa10∆) worked out at 2.96 ± 0.052, the protein stability index (pdr5∆) amounted to 3.15 ± 0.064, the protein stability index (san1∆) was found to be 3.03 ± 0.06 and the protein stability index (ubr1∆) turned out to be 2.95 ± 0.049.
Take SGEDVIIGKTTPISPDE [RPB2]: the protein stability index stood at 3.26 ± 0.21 (doa10∆), 3.49 ± 0.083 (san1∆) and 3.35 ± 0.085 (ubr1∆).
As to SGGSVNLYHVTEDGWIY [PRE2], the protein stability index was determined as 2.85 ± 0.12 (doa10∆), 3.16 ± 0.15 (pdr5∆), 3 ± 0.087 (san1∆) and 3.04 ± 0.089 (ubr1∆).
Take SGITGECLQAYIFFGPI [RET1]: the protein stability index reads like this: (doa10∆) 2.6 ± 0.059; (pdr5∆) 2.72 ± 0.064; (san1∆) 2.64 ± 0.076; (ubr1∆) 2.79 ± 0.051.
In the case of SGLPTCDYYNTFLLNNK [RPN2], the protein stability index is 2.94 ± 0.069 (doa10∆), 2.96 ± 0.071 (pdr5∆), 2.68 ± 0.062 (san1∆) and 2.51 ± 0.069 (ubr1∆).
Regarding SGNSANNMNVNMNLNPQ [GAL11], the protein stability index by setting is: (doa10∆) 2.85 ± 0.046; (pdr5∆) 2.87 ± 0.042; (san1∆) 2.73 ± 0.033; (ubr1∆) 2.93 ± 0.034.
Consider SGQKAGLIAARRTGLLR [RPL2A], for which the protein stability index runs as follows: (doa10∆) 3.07 ± 0.19; (pdr5∆) 3.43 ± 0.11; (san1∆) 3.15 ± 0.067; (ubr1∆) 2.72 ± 0.16.
In turn, SGRTVISPDPNLSIDEV [RPO31] came in with a protein stability index (doa10∆) of 2.4 ± 0.063, a protein stability index (pdr5∆) of 1.97 ± 0.06, a protein stability index (san1∆) of 2.03 ± 0.099 and a protein stability index (ubr1∆) of 1.92 ± 0.057.
Regarding SGTFYRYNAKAIGSGSE [PUP2], the protein stability index is 3.15 ± 0.088 (doa10∆), 3.14 ± 0.09 (pdr5∆), 3.37 ± 0.06 (san1∆) and 2.98 ± 0.073 (ubr1∆).
For SGTKSEVLTYVNYLISN [YJL039C/NUP192], in that order: 2.52 ± 0.053, 2.5 ± 0.056, 2.54 ± 0.041 and 2.58 ± 0.044.

Source of the values: the supplement of paper PMC9732359.
